Experiment [1] deals with HLA-A*0301 (human). Description: competition with 125I-labelled standard peptide for purified HLA-A*0301, gel filtration. In general terms: In gel filtration, larger molecules generally elute earlier.
In experiment [2] the target is HLA-A*1101 (human). Description: competition with 125I-labelled standard peptide for purified HLA-A*1101, gel filtration; ratio to the A*1101 standard peptide 940.06 [..] (6.0 nM).
Experiment [3] deals with HLA-A*0201 (human). Description: competitive inhibition of 125I-labelled standard peptide binding to purified HLA, gel filtration; ratio = IC50 standard / IC50 test peptide.
The target of experiment [4] is HLA-A*0203 (human). The experiment is described as above.
Experiment [5] has as its target HLA-A*0206 (human). The description is as above.
Experiment [6] deals with HLA-A*1101 (human). Description: competition with 125I-labelled standard peptide for purified HLA-A*1101, gel filtration; standard 940.06 [..] (6.0 nM).
Experiment [7] addresses HLA-A*6802 (human). In words: inhibition of 125I probe peptide binding to purified HLA, gel filtration; ratio = IC50 standard/IC50 test. The conditions noted are these: remark: other sources report otherwise.
The target of experiment [8] is HLA-A*0201 (human). In words: competition with 125I standard peptide for purified HLA; gel filtration.
Experiment [9] has as its target HLA-A*0202 (human). The description is as above.
The target of experiment [10] is HLA-A*0203 (human). Described as above.
Experiment [11] has as its target HLA-A*0206 (human). The description is as above.
The target of experiment [12] is HLA-A*6802 (human). The description is as above.
The target of experiment [13] is HLA-A*0203 (human). In words: competition with 125I-labelled standard peptide for purified HLA, gel filtration; ratio = IC50 standard / IC50 test peptide. Conditions: remark: other sources report otherwise.
The target in experiment [14] is HLA-A*0206 (human). Described as above. The conditions noted are these: remark: other sources report otherwise.
Experiment [15] concerns the target HLA-A*0201 (human). Description: competition with 125I-labelled standard peptide 941.01 for purified HLA-A*0201, gel filtration.
The target of experiment [16] is HLA-A*0202 (human). In words: competition with 125I-labelled standard peptide 941.01 for purified HLA-A*0202, gel filtration.
Experiment [17] concerns the target HLA-A*0206 (human). In words: competition with 125I-labelled standard peptide 941.01 for purified HLA-A*0206, gel filtration.
Experiment [18] deals with HLA-A*6802 (human). Description: competition with 125I-labelled standard peptide 1072.34 for purified HLA-A*6802, gel filtration.
Experiment [19] has as its target HLA-A*0202 (human). In words: competition with 125I-labeled probe peptide for purified HLA, gel filtration.
Experiment [20] deals with HLA-A*0203 (human). Described as above.
Experiment [21] has as its target HLA-A*0206 (human). The experiment is described as above.
In experiment [22] the target is HLA-A*6802 (human). The description is as above.
The target in a further experiment is HLA-A*0101 (human). In words: competition with 125I-labelled standard peptide for purified HLA-A*0101, gel filtration.
The target of experiment [23] is HLA-A*0201 (human). Description: competition with 125I-labeled probe peptide for purified HLA, gel filtration.
The target in experiment [24] is HLA-A*0201 (human). Description: inhibition of 125I probe peptide binding to purified HLA, gel filtration; ratio = IC50 standard/IC50 test. Conditions: remark: other sources report otherwise.
In experiment [25] the target is HLA-A*0202 (human). The description is as above. Conditions: remark: other sources report otherwise.
The target in experiment [26] is HLA-A*0201 (human). Description: competitive inhibition of 125I-labelled standard peptide binding to purified HLA. The conditions noted are these: remark: other sources report otherwise.
Experiment [27] addresses HLA-A*6802 (human). The experiment is described as above. Conditions: remark: other sources report otherwise.
For experiment [28], the target named is HLA-A*0301 (purified HLA class I molecule) (human). Description: competition binding assay with purified HLA-A*0301; inhibition of 125I-labelled standard peptide 941.12 ([..], 11 nM), gel filtration.
Experiment [29] has as its target HLA-A*0202 (human). Description: competitive inhibition of 125I-labelled standard peptide binding to purified HLA. Conditions: remark: other sources report otherwise.
Experiment [30] concerns the target HLA-A*0203 (human). The experiment is described as above. The conditions noted are these: remark: other sources report otherwise.
Experiment [31] addresses HLA-A*0206 (human). Described as above. The conditions noted are these: remark: other sources report otherwise.
The target of experiment [32] is HLA-A*0202 (human). Description: competition binding to purified HLA, 125I-labelled standard peptide, gel filtration; ratio = IC50 standard / IC50 test peptide.
In experiment [33] the target is HLA-A*0202 (human). In words: competition for purified HLA with 125I-labelled standard peptide 941.01 [..] as competitor, gel filtration. Conditions: remark: other sources report otherwise; scale: ratio.
The target in experiment [34] is HLA-A*0301 (human). In words: competition with 125I-labelled standard peptide for purified HLA, gel filtration. The conditions noted are these: scale: ratio.
Experiment [35] addresses HLA-A*1101 (human). The experiment is described as above. The conditions noted are these: scale: ratio.
[36] abbreviates: remark: other sources report otherwise.

Take SLLSLYGIH (modifications not checked) [… (PAP, position 242)]: the binding affinity ratio (IC50 of standard peptide / IC50 of test peptide) with HLA-A*0301 (human) [1] came to 0.0006; with HLA-A*1101 (human) [2] it was 0.0002.
VLGLPTQEPAL (modifications not checked) [… (Kallikrein, position 138)]: the binding affinity ratio is -0.0001 with HLA-A*0201 (human) [3], 0.0003 with HLA-A*0203 (human) [4] and 0.0003 with HLA-A*0206 (human) [5].
As for QDLFGIWSK (modifications not checked) [PAP 200 …], the binding affinity ratio (IC50 of standard peptide / IC50 of test peptide) with HLA-A*1101 (human) [6] turned out to be 0.0008.
Turning to ALSVGCTGA (modifications not checked) [… (Kallikrein, position 9)], the binding affinity ratio with HLA-A*6802 (human) [7] was -0.0001.
The IC50 is the concentration that gives 50% inhibition. Consider LLSNDMCARV (modifications not checked) [Peptide 1418.53 … (HuK2.178.V10)], for which the IC50 is 5.3 nM with HLA-A*0201 (human) [8] (setting [36]); 0.7 nM with HLA-A*0202 (human) [9] (setting [36]); 4.3 nM with HLA-A*0203 (human) [10] (setting [36]); 10 nM with HLA-A*0206 (human) [11] (setting [36]); 1700 nM with HLA-A*6802 (human) [12] (setting [36]).
On to QVAVYSHGWA (modifications not checked) [Kallikrein (hK2) peptide …, position 39, 10 amino acids], for which the results for the binding affinity ratio (ratio to standard peptide) with HLA-A*0203 (human) [13] and with HLA-A*0206 (human) [14] were 0.02 and 0.0005, respectively.
Turning to RLSEPAKI (modifications not checked) [RLSEPAKI (Kallikrein, position 125)], the binding affinity ratio (IC50 of standard peptide / IC50 of test peptide) in the experiment with HLA-A*0201 (human) [15] was -0.0001; in the experiment with HLA-A*0202 (human) [16], 0.0005; with HLA-A*0206 (human) [17] it was -0.0001; with HLA-A*6802 (human) [18], -0.0001.
Turning to MMNDQLMFL (modifications not checked) [Peptide 1126.01 … (PSM.663)], the IC50 in the experiment with HLA-A*0202 (human) [19] stood at 0.8 nM; with HLA-A*0203 (human) [20], 1.7 nM; with HLA-A*0206 (human) [21], 7.6 nM; with HLA-A*6802 (human) [22] it was 195 nM.
For the molecule RNETQHEPY (modifications not checked) [… (PAP, position 332)], the binding affinity ratio (IC50 of standard peptide / IC50 of test peptide) in the experiment with HLA-A*0101 (human) and with HLA-A*1101 (human) [2] was 0.0002 throughout.
For the molecule VLAGGFFLV (modifications not checked) [Peptide 1389.20 … (PSM.27.V9)], the 50% inhibitory concentration (IC50) is 26 nM with HLA-A*0201 (human) [23], 0.4 nM in the experiment with HLA-A*0202 (human) [19], 5 nM with HLA-A*0203 (human) [20] and 57 nM with HLA-A*0206 (human) [21].
As to AAHCIRNKSVI (modifications not checked) [… (PSA, position 59)], the binding affinity ratio with HLA-A*0201 (human) [24] was 0.001; with HLA-A*0202 (human) [25], 0.01.
On to LLWQPIPVHV (modifications not checked) [Peptide 1419.69 … (PAP.136.V10)], for which the IC50 with HLA-A*0201 (human) [8] worked out at 25 nM; with HLA-A*0202 (human) [9] it was 1.8 nM; with HLA-A*0203 (human) [10], 17 nM; with HLA-A*6802 (human) [12], 60 nM.
With VLTAAHCL (modifications not checked) [VLTAAHCL (Kallikrein, position 60)], the binding affinity ratio with HLA-A*0201 (human) [3] worked out at 0.0002; with HLA-A*0203 (human) [4] it was 0.0001; in the experiment with HLA-A*0206 (human) [5], 0.0001.
Regarding LMLLRLSEPA (modifications not checked) [Peptide 63.0014, … (PSA.117)], the IC50 with HLA-A*0201 (human) [26] came to 200 nM; with HLA-A*6802 (human) [27] it was 5000 nM.
For the molecule DTFPTDPIK (modifications not checked) [PAP peptide … (position 51, 9 amino acids)], the binding affinity ratio (IC50 of standard peptide / IC50 of test peptide) (ratio to standard peptide) in experiment [28] was determined as 0.0001.
Consider TLSVTWIGV (modifications not checked) [Peptide 60.0217, … (PSA.5.V9)], for which the IC50 was determined as 4.9 nM with HLA-A*0202 (human) [29], 40 nM with HLA-A*0203 (human) [30], 712 nM in the experiment with HLA-A*0206 (human) [31] and 229 nM with HLA-A*6802 (human) [27].
Regarding RAVCGGVLVH (modifications not checked) [PSA 43 …], the binding affinity ratio (IC50 of standard peptide / IC50 of test peptide) with HLA-A*1101 (human) [6] (setting [36]) worked out at 0.031.
Consider PSKAWGEVKR (modifications not checked) [PSM 721 …], for which the binding affinity ratio (IC50 of standard peptide / IC50 of test peptide) with HLA-A*1101 (human) [6] amounted to 0.0002.
For DTGQRVPV (modifications not checked) [DTGQRVPV (Kallikrein, position 85, 8 amino acids)], the binding affinity ratio with HLA-A*0202 (human) [32] is 0.0001.
On to DVLLSYPNK (modifications not checked) [PSM peptide … (position 114, 9 amino acids)], for which, in experiment [28], the binding affinity ratio (IC50 of standard peptide / IC50 of test peptide) (ratio to standard peptide) turned out to be 0.0006.
EIASKFSER (modifications not checked) [PSM peptide … (position 641, 9 amino acids)]: the binding affinity ratio (IC50 of standard peptide / IC50 of test peptide) (ratio to standard peptide) in experiment [28] worked out at 0.0006.
LVCNGVLQGV (modifications not checked) [Peptide 1418.55 … (HuK2.217.V10)]: the IC50 with HLA-A*0201 (human) [8] came to 10 nM; with HLA-A*0202 (human) [9], 2.9 nM; in the experiment with HLA-A*0203 (human) [10], 12 nM; in the experiment with HLA-A*0206 (human) [11], 5.6 nM; with HLA-A*6802 (human) [12] it was 3.5 nM.
Regarding IALSVGCTGA (modifications not checked) [… (Kallikrein position 8, 10-mer)], the binding affinity ratio with HLA-A*0202 (human) [33] was 0.05.
On to ATFDIESKV (modifications not checked) [Peptide 1418.30 … (PSM.711.T2)], for which the half-maximal inhibitory concentration (IC50) in the experiment with HLA-A*0201 (human) [23] turned out to be 238 nM; with HLA-A*0202 (human) [19], 27 nM; in the experiment with HLA-A*0203 (human) [20] it was 44 nM; with HLA-A*0206 (human) [21], 82 nM; with HLA-A*6802 (human) [22], 258 nM.
Turning to DAVKVMDL (modifications not checked) [DAVKVMDL (PSA, position 130, 8 amino acids)], in the experiment with HLA-A*0202 (human) [32], the binding affinity ratio came out at 0.0003.
For SLYESWTKK (modifications not checked) [… (PSM, position 492)], the binding affinity ratio in the experiment with HLA-A*0301 (human) [34] worked out at 1; with HLA-A*1101 (human) [35] it was 2. In addition, the values for the binding affinity ratio (IC50 of standard peptide / IC50 of test peptide) in the experiment with HLA-A*0301 (human) [1] and in the experiment with HLA-A*1101 (human) [2] were 1 and 2, respectively.
In the experiment with HLA-A*6802 (human) [12] (setting [36]), KVTEFMLCV (modifications not checked) [Peptide 1418.21 … (HuK2.191.V9)] had an IC50 of 6670 nM.

For the origin of these results see US20070020327A1.
